In the supplement of paper PMC12764529:
± gives the half width of the 95% confidence interval.

Assays:
[1] = folding stability dG unfold from trypsin proteolysis; higher = more stable
In short: (§1)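 How resistant each design was to proteolysis was captured as K50, inferred by Bayesian fitting of sequencing counts. Unfolding free energy was then derived relative to a sequence-predicted unfolded-state K50 and a shared folded-state K50, per protease or combined. Digestion used trypsin and chymotrypsin at 11 threefold-diluted concentrations plus a no-protease condition, on mini-proteins under 80 residues without cysteine in a PA-tagged cDNA display construct. Designs were kept only when AlphaFold2 dimer inter-PAE was above 15.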

[2] = folding stability dG unfold from chymotrypsin proteolysis; higher = more stable
In short: as §1

[3] = folding stability dG unfold (combined trypsin and chymotrypsin); higher = more stable
In short: as §1

SAGGSMSPEEKARKLAEELRKKLPPGAKVRIKVEVDGKTYEIEIEPGEEIEFPPGEKVKIVEIEVESAGGSA [r2_391_TrROS_Hall]
folding stability dG unfold [1]: 3.12 ± 0.16 kcal/mol
folding stability dG unfold [2]: 2.82 ± 0.2 kcal/mol
folding stability dG unfold [3]: 2.98 ± 0.3 kcal/mol

SAGGSMTAPVKVLIKVPPNIPLSDIVKKLSAIPGIGAKPISYDPETGYALVDIGATDPEALKEAIGSAGGSA [r2_305_TrMRF]
folding stability dG unfold [1]: 1.67 ± 0.057 kcal/mol
folding stability dG unfold [2]: 2 ± 0.029 kcal/mol
folding stability dG unfold [3]: 1.9 ± 0.057 kcal/mol

SAGGSMTFEIVEVTYDEETDEVTVRVRLPNGEVVTLSAEEIEKAIKEGKTITFTLENGEKLEIEVLSAGGSA [r2_301_TrROS_Hall]
folding stability dG unfold [1]: 1.49 ± 0.038 kcal/mol
folding stability dG unfold [2]: 2.58 ± 0.03 kcal/mol
folding stability dG unfold [3]: 2.27 ± 0.084 kcal/mol

SAGGSMTLEEKSEEDYIIRYVEKGDTYSLIKINPNTGTAEVTTFKPGGVPSKTTYKIPKGKELKVTGSAGGS [r8_11_JUSTAS]
folding stability dG unfold [1]: -0.0399 ± 0.11 kcal/mol
folding stability dG unfold [2]: 0.726 ± 0.12 kcal/mol
folding stability dG unfold [3]: 0.481 ± 0.079 kcal/mol

SAGGSMTLRLPVPEDVEVVEVTAEVPDPETGKVYVFRSRARVVPYKDGVYLTVDLDPDGRSYGFDPSAGGSA [r2_123_TrMRF]
folding stability dG unfold [1]: 1.07 ± 0.096 kcal/mol
folding stability dG unfold [2]: 0.56 ± 0.12 kcal/mol
folding stability dG unfold [3]: 0.835 ± 0.059 kcal/mol

SAGGSMTLTFTDPSTGTTTTVTKLPNGKYVVTTTTTTSTNPEVSPTGETVGPATTTTTTVLPPAELSAGGSA [r2_195_JUSTAS]
folding stability dG unfold [1]: 2 ± 0.12 kcal/mol
folding stability dG unfold [2]: 1.79 ± 0.024 kcal/mol
folding stability dG unfold [3]: 1.86 ± 0.065 kcal/mol

SAGGSMTLTGESEEEAKALVEALKEELKKKYPEKPNLEIPVKVIIKDPKTGKETEKVFKVKIPIPKSAGGSA [r2_393_JUSTAS]
folding stability dG unfold [1]: 1.04 ± 0.028 kcal/mol
folding stability dG unfold [2]: 1.11 ± 0.09 kcal/mol
folding stability dG unfold [3]: 1.14 ± 0.062 kcal/mol

SAGGSMTLTIEVDGKTVEITEVREKEDGEKVVRIRVTTPDGEEKEIEMTLDELAEILGLSKEELEPSAGGSA [r2_262_TrROS_Hall]
folding stability dG unfold [1]: 3.75 ± 0.19 kcal/mol
folding stability dG unfold [2]: 2.67 ± 0.085 kcal/mol
folding stability dG unfold [3]: 3.27 ± 0.18 kcal/mol

SAGGSMTTTTEDKGDGRIVTTTIPEEGTVVTTTIFYEPGGPKVETKTTTTPVPPLPSTVVTSPNLASAGGSA [r2_375_JUSTAS]
folding stability dG unfold [1]: 0.572 ± 0.093 kcal/mol
folding stability dG unfold [2]: 1.15 ± 0.13 kcal/mol
folding stability dG unfold [3]: 0.937 ± 0.34 kcal/mol

SAGGSMVLLSEETIGDIKIKTYKDPNGGVITVIEKPGERTIEFIYPDGILTIEFPPDGTKKYSFDPIGSAGG [r13_246_JUSTAS]
folding stability dG unfold [1]: 2.01 ± 0.049 kcal/mol
folding stability dG unfold [2]: 2.32 ± 0.071 kcal/mol
folding stability dG unfold [3]: 2.29 ± 0.1 kcal/mol

SAGGSMVLTLEEESEEGVLRVTELHFYPGEVTVTTRTFEIAPDGSVRSATESTTVIPVPPSALAEASAGGSA [r2_474_JUSTAS]
folding stability dG unfold [1]: 1.37 ± 0.051 kcal/mol
folding stability dG unfold [2]: 2.33 ± 0.038 kcal/mol
folding stability dG unfold [3]: 1.96 ± 0.1 kcal/mol

SAGGSMVLVRVERTPDGTLRVTALFFFDGRLLRVERTFRLAPDGRIVDADVSVEELPVPPSEVPVLSAGGSA [r2_474_TrMRF]
folding stability dG unfold [1]: 3.39 ± 0.16 kcal/mol
folding stability dG unfold [2]: 4.45 ± 0.071 kcal/mol
folding stability dG unfold [3]: 4.11 ± 0.099 kcal/mol

SAGGSMVTLTTTETSVEGERTVEVSTLGSKTVTTTFEPESDSSTVTTSPVPPVAGPELLALNLLLLSAGGSA [r2_482_JUSTAS]
folding stability dG unfold [1]: 0.291 ± 0.079 kcal/mol
folding stability dG unfold [2]: -0.102 ± 0.18 kcal/mol
folding stability dG unfold [3]: 0.189 ± 0.082 kcal/mol

SAGGSMVVVPVEVTVPPEELEQYLEDLRAAYEKPGVKVEILPVEREPIRDPAGRVEEVRAKATIKIVPSAGG [r13_707_JUSTAS]
folding stability dG unfold [1]: -0.511 ± 0.21 kcal/mol
folding stability dG unfold [2]: 0.522 ± 0.042 kcal/mol
folding stability dG unfold [3]: 0.207 ± 0.08 kcal/mol

SAGGSMYLIRITVRNKDGEEVLTIERRVRLEDGKSLEEVAEELRRALESLPNLEVVDVEVVPLEELSAGGSA [r2_192_TrROS_Hall]
folding stability dG unfold [1]: 4.3 ± 0.072 kcal/mol
folding stability dG unfold [2]: 3.797 ± 0.019 kcal/mol
folding stability dG unfold [3]: 3.99 ± 0.058 kcal/mol

SAGGSNVVEVEVEELPDGTVVLRVRVLRLLPNGELGGVVERPFVFPRELFENIPLEEIVRRAVEEGSAGGSA [r2_421_TrMRF]
folding stability dG unfold [1]: 3.39 ± 0.081 kcal/mol
folding stability dG unfold [2]: 3.758 ± 0.032 kcal/mol
folding stability dG unfold [3]: 3.63 ± 0.072 kcal/mol

SAGGSPDPNQKPVTVRVEIMIMRPDPNGKWEMRPIEFEMTIGDVEEFLEELEKEPGYMIMVDIEIYSAGGSA [r2_270_TrROS]
folding stability dG unfold [1]: 2.33 ± 0.13 kcal/mol
folding stability dG unfold [2]: 3.97 ± 0.25 kcal/mol
folding stability dG unfold [3]: 3.65 ± 0.28 kcal/mol

SAGGSPEIPKDYEVIEIDAETLPDGSVLIPIIVRDPIIPYYLKMYYRSIPTRWEPISFELIHPDELSAGGSA [r2_371_TrMRF]
folding stability dG unfold [1]: 1.25 ± 0.018 kcal/mol
folding stability dG unfold [2]: 1.61 ± 0.085 kcal/mol
folding stability dG unfold [3]: 1.45 ± 0.057 kcal/mol

SAGGSPEQARRWAKYIAETRAGENGWEVEDVEVEQHPGGYVEASIDVQFPDGKKREITITIPPGDPFSAGGS [r8_175_TrROS]
folding stability dG unfold [1]: -0.149 ± 0.54 kcal/mol
folding stability dG unfold [2]: -0.361 ± 0.81 kcal/mol
folding stability dG unfold [3]: -0.447 ± 0.55 kcal/mol

SAGGSPFKKETFEFENVKVEVYRLPGPYALALLEVEVSGEPVYYVAVFKLGPDNKLEVVSFGPVDLSAGGSA [r2_171_TrMRF]
folding stability dG unfold [1]: 2.63 ± 0.054 kcal/mol
folding stability dG unfold [2]: 2.85 ± 0.031 kcal/mol
folding stability dG unfold [3]: 2.78 ± 0.053 kcal/mol

SAGGSPGIKIEIWFMIMFPVKPDPDNGKPRWYMIMVSPKMWYDPEPGGMQIEIDINIMPLGDPEAFSAGGSA [r2_489_TrROS]
folding stability dG unfold [1]: 3.2 ± 0.16 kcal/mol
folding stability dG unfold [2]: 3.6 ± 0.038 kcal/mol
folding stability dG unfold [3]: 3.41 ± 0.21 kcal/mol

SAGGSPIKPITFEFPNIKVTVYRMPNKYIMVHIEFRENGEPYYLMITFKLDPDNKLKATSIGPMPPSAGGSA [r2_171_TrROS]
folding stability dG unfold [1]: 2.69 ± 0.1 kcal/mol
folding stability dG unfold [2]: 4.537 ± 0.037 kcal/mol
folding stability dG unfold [3]: 4.01 ± 0.093 kcal/mol

SAGGSPMTITMWFPVDSVEQAKDLINPNFPDYDVKVDNIKPENGWVRVKYTWPNGKPQEREIPIKKSAGGSA [r2_201_TrROS]
folding stability dG unfold [1]: -0.226 ± 0.33 kcal/mol
folding stability dG unfold [2]: 0.324 ± 0.38 kcal/mol
folding stability dG unfold [3]: 0.147 ± 0.39 kcal/mol

SAGGSPNIQVNVERDPKDGYIKFSITVPPGAPNMKIKIAIFENDKIVEKEEITMPPGKTTEYTFKIKSAGGS [r16_412_TrROS]
folding stability dG unfold [1]: 3.29 ± 0.16 kcal/mol
folding stability dG unfold [2]: 4.13 ± 0.065 kcal/mol
folding stability dG unfold [3]: 3.6 ± 0.38 kcal/mol

SAGGSPPDNFKMEPIPLRFPNGWKITVMVMRNPDDGRPYVSVEIEPPNDGKEVKFMMPADDLKDFISAGGSA [r2_366_TrROS]
folding stability dG unfold [1]: 1.5 ± 0.054 kcal/mol
folding stability dG unfold [2]: 1.64 ± 0.23 kcal/mol
folding stability dG unfold [3]: 1.66 ± 0.19 kcal/mol

SAGGSPPPVEVTPITHINGGEPVPTRVETYPDGTVTVHITLPDGSSGTLPAEELAELLAAPGSLGDFSAGGS [r16_105_JUSTAS]
folding stability dG unfold [1]: 1.53 ± 0.071 kcal/mol
folding stability dG unfold [2]: -0.455 ± 0.033 kcal/mol
folding stability dG unfold [3]: 0.805 ± 0.045 kcal/mol

SAGGSPRLELTVTIPGLGLPVTVRTESVDPVRGYVTATLDFPVPGYRATLVFDPVTGRVYARVEPASAGGSA [r2_147_TrMRF]
folding stability dG unfold [1]: 2.34 ± 0.04 kcal/mol
folding stability dG unfold [2]: 3.13 ± 0.062 kcal/mol
folding stability dG unfold [3]: 2.85 ± 0.12 kcal/mol

SAGGSPSITVSESSDPATGTRTLTITVPSSAPSATLNIVVSGSGPPVSSKTVTVPPGTTVTITYTTTSAGGS [r16_412_JUSTAS]
folding stability dG unfold [1]: 2.2 ± 0.06 kcal/mol
folding stability dG unfold [2]: 2.84 ± 0.049 kcal/mol
folding stability dG unfold [3]: 2.61 ± 0.056 kcal/mol

SAGGSPSTARTVELEFNPNEVTLEKIKELLEELGFKGITSITVESTPDSLTITLTDPNGAPSVVRVISAGGS [r8_86_JUSTAS]
folding stability dG unfold [1]: 2.05 ± 0.049 kcal/mol
folding stability dG unfold [2]: 2.66 ± 0.075 kcal/mol
folding stability dG unfold [3]: 2.43 ± 0.047 kcal/mol

SAGGSPTVTFDPETGAVTVTVNGQTQTAYIPPGDKVTLTVTFQSGGSGVPFTLELEVTVTPPKPLKSAGGSA [r2_116_TrMRF]
folding stability dG unfold [1]: 1.45 ± 0.074 kcal/mol
folding stability dG unfold [2]: 2.48 ± 0.061 kcal/mol
folding stability dG unfold [3]: 2.17 ± 0.12 kcal/mol

SAGGSQKLPPGETIPIRIPGFQIEISPDKTTIHVMWPDPDEAKDFLKNLPFPIKIDKVEVMPPEDFSAGGSA [r2_418_TrROS]
folding stability dG unfold [1]: 0.515 ± 0.066 kcal/mol
folding stability dG unfold [2]: 1.01 ± 0.035 kcal/mol
folding stability dG unfold [3]: 0.85 ± 0.11 kcal/mol

SAGGSRIEEVAREILEKLPLKPGEPVLVEVEVDFPDGLRIRLKVEAYVDPETGEVHLKVEILEIEPVSAGGS [r16_634_TrMRF]
folding stability dG unfold [1]: 3.24 ± 0.039 kcal/mol
folding stability dG unfold [2]: 2.91 ± 0.064 kcal/mol
folding stability dG unfold [3]: 3.06 ± 0.069 kcal/mol

SAGGSRRLEFMFYNPEAGFLIKIEVTYDPDDPGYYKIRVEVYPPDGEPIFPVEIYVPPGDDIKIKFPSAGGS [r16_654_TrROS]
folding stability dG unfold [1]: 3.54 ± 0.35 kcal/mol
folding stability dG unfold [2]: 4.42 ± 0.13 kcal/mol
folding stability dG unfold [3]: 4.31 ± 0.29 kcal/mol

SAGGSRVEVEVEVEGDTLRVRLRVYSEGGPPLLEAEAELPLGPVPPLPPVEVRVDPLEEEYPAKYFSAGGSA [r2_332_TrMRF]
folding stability dG unfold [1]: 2.82 ± 0.14 kcal/mol
folding stability dG unfold [2]: 2.28 ± 0.17 kcal/mol
folding stability dG unfold [3]: 2.5 ± 0.31 kcal/mol

SAGGSSELEEAIEKARAEPGVLVERTVKLPDGRELKVEVDPKTGIVTLTETLPDGSTTTKEETYEPSAGGSA [r2_263_JUSTAS]
folding stability dG unfold [1]: 0.512 ± 0.088 kcal/mol
folding stability dG unfold [2]: 1.26 ± 0.085 kcal/mol
folding stability dG unfold [3]: 1.11 ± 0.13 kcal/mol

SAGGSSMPLVKKEVDATRPDGSPLSFEEYLSSLKPNIRSEPIPNGKTVVTAPDPATGSTYTITIEESAGGSA [r2_234_JUSTAS]
folding stability dG unfold [1]: -1.31 ± 0.19 kcal/mol
folding stability dG unfold [2]: -0.37 ± 0.14 kcal/mol
folding stability dG unfold [3]: -0.428 ± 0.079 kcal/mol
